The source of these data is patent US6372211B1, “Methods and compositions for controlling insects” (Monsanto Technolgy LLC, priority 1997, dated 2002).

The subject of series [1] is T. viride lysine oxidase. Conditions: read-out: Km for lysine, reported, Kusakabe et al., 1980; cited from earlier work.
The subject of series [2] is Trichoderma sp. F22844 L-lysine oxidase (Mr 56,000 protein, E.C. 1.4.3.14), native; proprotein SEQ ID NO:46. The settings on record: read-out: Km for lysine; lysine oxidase from F22844.
Series [3] can be described thus: Lysine oxidase enzymatic assay of enzyme preparations. Conditions: purified lysine oxidase. It is filed as biochemical. How it is done:
F22844 was identified taxonomically as a Trichoderma species.
(§1) Yeast (Saccharomyces cerevisiae) transformed with pMON25030 were grown in the presence of galactose and shown to produce enzymatically active lysine oxidase. Yeast transformed with pMON25030 had soluble lysine oxidase activity in both disrupted cell pellets and cell free culture media. […] Lysine oxidase from the yeast culture media was subsequently purified and shown to have bioactivity against corn rootworm when combined with tedanalactam synthase.

Series [4] has as its system corn rootworm. Put plainly: Corn rootworm bioassay (species not stated). It is filed as in vivo, Diabrotica spp. The settings on record: Table 11, yeast recombinant lysine oxidase 14 ppm, F22844 Mr 50,000 10 ppm, alone or combined. How it is done: (§2) These leads were not characterized further. […] Lysine oxidase from Trichoderma viride is available commercially from Sigma (St. Louis, Mo.). The enzyme was purified to a single band from this preparation and bioassayed against southern corn rootworm. Bioassays were conducted to compare the concentration responses of the T. viride lysine oxidase (±Mr 50,000 protein from F22844) with the lysine oxidase purified from F22844. The bioactivity of the T viride lysine oxidase agrees very well with the bioactivity of lysine oxidase from F22844 when bioassayed in the presence of tedanalactam synthase from F22844 (Table 10). Very similar stunting levels are seen at equivalent doses (compare Table 10 to Table 7). In addition, no bioactivity is seen with either lysine oxidase in the absence of tedanalactam synthase from F22844.
as §1

The test system of series [5] is southern corn rootworm. Put plainly: Southern corn rootworm artificial diet bioassay. It is filed as in vivo. How it is done:
These proteins were then purified by sizing and ion exchange chromatography. […] In both cases, no bioactivity was detected when the proteins were assayed individually but significant stunting was seen when the proteins were combined in assay.
Native-PAGE studies were effective in confirming that the Mr 56,000 and Mr 50,000 proteins were responsible for the southern corn rootworm bioactivity of F22844. The chromatographically purified Mr 56,000 and Mr 50,000 proteins were further purified by native PAGE. […] A sample containing a combination of the two proteins at concentrations of 9.7 μg/mL of Mr 56,000 and 2.5 μg/mL of Mr 50,000 yielded 89% stunting of corn rootworm larvae (Table 3). […]
as §2
An NcoI-HindIII fragment containing the full length tedanalactam synthase cDNA gene (SEQ ID NO:40) from pMON25424 was interested into pMON6235, an E. coli expression vector containing an arabinose inducible promoter and G10 leader sequence to produce pMON25428 (FIG. 12). […] The relative migration of the expressed protein on SDS-PAGE was identical to the F22844 purified tedanalactam synthase. The recombinant tedanalactam synthase was purified in a 5 step procedure from E. coli expressing the tedanalactam synthase gene. Lysine oxidase was purified from a commercial preparation of T. viride lysine oxidase. Both the lysine oxidase and tedanalactam synthase were >95% pure by SDS-PAGE.

With `NCCCC[C@H](N)C(=O)O` [lysine], the Km (in general, the concentration of substrate that gives half-maximal velocity) in series [1] was 40 µM; in series [2], 26 µM.

B1: L-lysine oxidase (protein)
chain: MDNVDFAESVRTRWARRLIREKVAKELNILTERLGEVPGIPPPNEGRFLGGGYSHDNLPSDPLYSSIKPALLKEAPRAEEELPPRKVCIVGAGVSGLYIAMILDDLKIPNLTYDIFESSSRTGGRLYTHHFTDAKHDYYDIGAMRYPDIPSMKRTFNLFKRTGMPLIKYYLDGENTPQLYNNHFFAKGVSDPYMVSVANGGTVPDDVVDSVGEKLQQAFGYYKEKLAEDFDKGFDELMLVDDMTTREYLKRGGPKGEAPKYDFFAIQWMETQNTGTNLFDQAFSESVIDSFDFDNPTKPEWYCIEGGTSLLVDAMKETLVHKVQNNKRVDAISIDLDAPDDGNMSVRIGGKDHSGYSTVFNTTALGCLDRMDLRGLNLHPTQADAIRCLHYDNSTKVALKFSYPWWIKDCGITCGGAASTDLPLRTCVYPSYNLDDTGEAVLLASYTWSQDATRIGSLVKDAPPQPPKEDELVELILQNLARLHAEHMTYEKIKEAYTGVYHAYCWANDPNVGGAFALFGPGQFSNLYPYLMRPAAGGKFHIVGEASSVHHAWIIGSLESAYTAVYQFLYKYKMWDYLRLLLERWQYGLQELETGKHGTAHLQFILGSLPKEYQVKI
notes: Mr 56,000 protein purified from Trichoderma sp; F22844 culture filtrate, identified as L-lysine oxidase
B1 had a specific activity in series [3] of 37 U/mg protein. Moreover, the “# of survivors” value is given as 38 in series [4] (16 wells/sample, buffer 61, 45) and 46 in series [5] (Table 12, SCRW neonate, T. viride lysine oxidase 10 ppm, E. coli produced Mr 50,000 18 ppm, alone or combined, buffer 51, 52). For the same molecule, in series [4] (buffer 0.94, 0.84), the “Mean larval wt. (mg) (±SEM)” value was found to be 0.76 ± 0.06 mg. The “% Stunting” value is listed as “NSS” in series [5] (Table 2a, Mr 56,000 10 μg/mL, Mr 50,000 1.5 μg/mL, alone or combined, NSS = not statistically significant); “NSS” in series [5] (Table 3, native PAGE purified, Mr 56,000 9.7 μg/mL, Mr 50,000 2.5 μg/mL, alone or combined); “NSS” in series [5] (second table headed TABLE 2a, Mr 56,000 10 μg/mL, Mr 50,000 1.5 μg/mL, NSS = not statistically significant). Besides, in series [5] (Table 12, SCRW neonate, T. viride lysine oxidase 10 ppm, E. coli produced Mr 50,000 18 ppm, alone or combined, buffer 0.68, 0.57), the “Mean larval wt. (mg) (+SEM)” value amounted to 0.48 ± 0.04 mg.
